# T1: Staphylococcal Enterotoxin B (SEB) (UniProt P01552 28-266)
# T1 sequence: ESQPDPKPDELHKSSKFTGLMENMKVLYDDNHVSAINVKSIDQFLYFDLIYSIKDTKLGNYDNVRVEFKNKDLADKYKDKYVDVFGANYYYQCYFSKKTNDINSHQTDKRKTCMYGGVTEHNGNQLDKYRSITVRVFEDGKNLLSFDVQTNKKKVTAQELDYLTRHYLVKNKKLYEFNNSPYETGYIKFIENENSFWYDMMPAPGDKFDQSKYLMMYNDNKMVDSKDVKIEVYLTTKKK
# B1: sdAb A3 lacking the disulfide (A3-ds) (VHH)
# VHH: EVQLVESGGGLVQAGDSLRLSATASGRTFSRAVMGWFRQAPGKEREFVAAISAAPGTAYYAFYADSVRGRFSISADSAKNTVYLQMNSLKPEDTAVYYVAADLKMQVAAYMNQRSVDYWGQGTQVTVSSAAALEHHHHHH
# Target: T1, Staphylococcal Enterotoxin B (SEB)
# Experiment: SPR on SEB-coated chip
binder,measurement,value
B1,binding result,binds
